According to publication PMC8423076:

Biological target: SARS-CoV-2 receptor-binding domain (RBD) homodimer (SARS-CoV-2) (UniProt P0DTC2)
Assay: reducing and non-reducing SDS-PAGE

In the case of “SARS-CoV-2 receptor-binding domain (RBD) homodimer (from UniProt P0DTC2 319-541) (domain or fragment)”, the stoichiometry N is reported as 2.
